Legend:
Format in all cases: cell-based, Saccharomyces cerevisiae
S. cerevisiae 334 [1] = assay: C. elegans elongase CEELO1 activity in yeast
Method: The plasmids pRET-21 and -22 were transformed into S. cerevisiae 334 as previously described (see Example III) and the resulting yeast cultures (334(pRET-21) and 334(pRET-22)) grown in 100 ml of selective media without leucine (Ausubel et al, supra) for 48 hours at 20° C. in the presence of 50 μM GLA and AA. […] The percent conversion of GLA to DGLA by 334(pRET-21) and 334(pRET-22) was 11.1% and 19.4% respectively with an average of 15.25%.
To further confirm the GLA elongation activity of CEELO1, the experiment described in the paragraphs above was repeated with the exception that GLA and AA were added to cultures of 334(pRET-22) separately. […] In this case, the percent conversion appears to be double that described in previous results (see FIG. 48) and may either be due to the absence of the additional substrate (AA) or the subculturing of the yeast.
Additionally, to further determine the substrate specificity of CEELO1, 50 μM of each substrate besides GLA (e.g., SA (18:0), OA (18:1), LA (18:2n-6), DGLA (20:3n-g), AA ([…]), ADA (22:4n-6), ALA (18:3n-3), PA ([…]), EPA (20:5n-3) and STA ([…])) was added individually to cultures of 334(pRET-22) and grown for 48 hours at 20° C., as described in Example XVII. […] The CEELO1 elongated 13% of STA incorporated to ETA (20:4n-3)(see FIG. 62).

yeast = assay: Co-expression of CEELO1 and M. alpina Δ5 desaturase in yeast; conditions: pRET22 and pCGR4 co-expressed, FIG. 63
Method: Parallel to Examples III and XI, the C. elegans CEELO1 gene in the plasmid pRET22 and M. alpina Δ5 desaturase (pCGR-4; see Example III) were co-expressed in yeast to determine if AA or EPA could be produced from exogenously added GLA or STA, respectively. When a yeast culture containing both pRET22 and pCGR4 plasmids was grown in the presence of 50 μM GLA or STA in media lacking leucine and uracil, the percent conversion to the final products of AA and EPA, respectively, appeared identical (27% conversion)(see FIG. 63). Thus, simultaneous heterologous expression of CEEL01 and a Δ5 desaturase results in the biosynthesis of AA and EPA from GLA and STA, respectively in yeast.

S. cerevisiae 334 [2] = assay: GLA elongase (GLELO) activity and substrate specificity in yeast
Method: To further confirm the activity of the GLA elongase encoded by the pRPB2 recombinant plasmid, elongase activity screening was repeated on the yeast clone SC334 containing pRPB2 plasmid. This experiment was also conducted to assure consistent lipid extraction and to detect the activity of GLA elongase by averaging four independent experiments. The S. cerevisiae 334 glycerol stock containing pRPB2 was plated onto minimal media agar plates lacking uracil. Individual colonies were randomly picked and grown in minimal medium lacking uracil, as described in Example VIII. The four independent cultures were combined, and a 5 ml aliquot was used as an inoculum for four separate 50 ml cultures. The cultures were then grown in the presence of GLA and were subjected to fatty acid analysis along with a negative control of S. cerevisiae 334 containing pYES2, as described in Example VIII. The GLA elongase activity of each of the four independent samples of 334(pRPB2) appeared to be consistent with an average conversion of 62% GLA to DGLA.
To analyze the substrate specificity of the GLA elongase, the culture of 334(pRPB2) was tested with different fatty acid substrates besides GLA (e.g., SA(18:0), OA(18:1), LA(18:2n-6), AA(20:4n-6), ADA(22:4n-6), ALA(18:3n-3), STA(18:4n-3), and EPA(20:5n-3)). […] GLA elongase was able to convert 73% of STA to 20:4n-3 (FIG. 25).

S. cerevisiae 334 [3] = assay: Co-expression of GLELO and M. alpina Δ5-desaturase in yeast
Method: Once DGLA (20:3n-6) is produced by the GLA elongase, the Δ5-desaturase can convert it to AA (20:4n-6) in a desired co-expression system. […] Therefore, the GLA elongase has the ability to work with other enzymes in the n-6 PUFA synthetic pathway to produce desirable fatty acids.
To determine whether the above conversion is also true in n-3 pathways, the similar co-expression experiments were carried out in the presence of 25 μM STA. Again, if both enzymes are expressed, the STA substrate will be converted to 20:4n-3 which will then be converted to EPA (20:5n-3) by the Δ5-desaturase.

[4] = 50 μM GLA and AA together, 48 hours at 20° C., FIG. 48
[5] = GLA and AA added separately, FIG. 61

B1: CEELO1: C. elegans elongase (SEQ ID NO:4), 288 amino acids, expressed in yeast from pRET-22 (protein)
chain: MAQHPLVQRLLDVKFDTKRFVAIATHGPKNFPDAEGRKFFADHFDVTIQASILYMVVVFGTKWFMRNRQPFQLTIPLNIWNFILAAFSIAGAVKMTPEFFGTIANKGIVASYCKVFDFTKGENGYWVWLFMASKLFELVDTIFLVLRKRPLMFLHWYHHILTMIYAWYSHPLTPGFNRYGIYLNFVVHAFMYSYYFLRSMKIRVPGFIAQAITSLQIVQFIISCAVLAHLGYLMHFTNANCDFEPSVFKLAVFMDTTYLALFVNFFLQSYVLRGGKDKYKAVPKKKNN
modifications: Caenorhabditis elegans
For B1, the “DGLA, average of the total lipid in the two samples” value (S. cerevisiae 334 [1]; [4]) was 1.79%, the “percent conversion of GLA to DGLA” value (S. cerevisiae 334 [1]; [4]) was 19.4% and the “elongation of AA or any endogenous fatty acid” value (S. cerevisiae 334 [1]; 50 μM GLA and AA together, FIG. 48) was “almost no elongation”. For the same molecule, the “STA incorporated elongated to ETA (20:4n-3)” value (S. cerevisiae 334 [1]; 50 μM STA, 48 hours at 20° C., FIG. 62) was 13%, the “elongation of other exogenously added substrates (SA, OA, LA, DGLA, AA, ADA, ALA, PA, EPA, STA)” value (S. cerevisiae 334 [1]; 50 μM of each substrate individually, FIG. 62) was “STA was the only exogenously added substrate that was elongated” and the “conversion rate of GLA to DGLA” value (S. cerevisiae 334 [1]; [5]) was 38.2%. The “elongation activity of AA” value (S. cerevisiae 334 [1]; [5]) was “No elongation activity of AA was detected”, the “average percent conversion of GLA to DGLA” value (S. cerevisiae 334 [1]; average of 334(pRET-21) and 334(pRET-22), 50 μM GLA and AA together) was 15.25% and the “conversion rate of endogenous 16:1n-7 to 18:1n-7” value (S. cerevisiae 334 [1]; endogenous substrate) was 9.12%. The “percent conversion of GLA to final product AA” value (yeast; 50 μM GLA) was 27% and the “percent conversion of STA to final product EPA” value (yeast; 50 μM STA) was 27%.

B2: GLELO: M. alpina GLA elongase, 318 amino acids, encoded by GLELO cDNA (SEQ ID NO:2) in plasmid pRPB2 (protein, listed as Mortierella alpina)
chain: MESIAPFLPSKMPQDLFMDLATAIGVRAAPYVDPLEAALVAQAEKYIPTIVHHTRGFLVAVESPLARELPLMNPFHVLLIVLAYLVTVFVGMQIMKNFERFEVKTFSLLHNFCLVSISAYMCGGILYEAYQANYGLFENAADHTFKGLPMAKMIWLFYFSKIMEFVDTMIMVLKKNNRQISFLHVYHHSSIFTIWWLVTFVAPNGEAYFSAALNSFIHVIMYGYYFLSALGFKQVSFIKFYITRSQMTQFCMMSVQSSWDMYAMKVLGRPGYPFFITALLWFYMWTMLGLFYNFYRKNAKLAKQAKADAAKEKARKLQ
For B2, the “average conversion of GLA to DGLA” value (S. cerevisiae 334 [2]; 25 μM GLA, four independent cultures, FIG. 24) was 62%, the “utilization of other substrates SA, OA, LA, AA, ADA, ALA, STA, EPA” value (S. cerevisiae 334 [2]; identical assay conditions) was “the only other substrate utilized by the elongase enzyme was STA” and the “conversion of STA to 20:4n-3” value (S. cerevisiae 334 [2]; substrate STA, FIG. 25) was 73%. The “average conversion of GLA to AA” value (S. cerevisiae 334 [3]; 25 μM GLA, co-expressed with Δ5-desaturase (pRPE31), FIG. 26A) was 27% and the “production of EPA” value (S. cerevisiae 334 [3]; 25 μM STA, co-expressed with Δ5-desaturase, FIG. 26B) was “approx. 40%”.
